Experimental data: the nanobody polyreactivity screen of Harvey et al. (2022)

Assay: yeast display, Sf9 membrane polyspecificity reagent, FACS + sequencing; frameworks hold sequencing errors
Outline: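 Sorting gates, low and high (top ~1%), were placed on anti-HA fluorescence to track expression and on streptavidin fluorescence to track reagent binding. A clone's polyreactivity label is taken from the gate it came out of. The reagent was 10% biotinylated, detergent-solubilized Sf9 membrane, applied for 1 hour at 4 °C to galactose-induced yeast display cells.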

Row | Sequence | polyreactivity (PSR sort gate)
1 | QVQLVESGGGLVQAGGSLRLSCAASGFTFWYYAMGWYRQAPGKERELVAAISSNGASTYYADSVKGRFTISRDNAKNTVYLQMNSLKPEDTAVYYCNAYYDTWDSAYDYDYWGQGTQVTVSS | low polyreactivity
2 | QVQLVESGGGLVQAGGSLRLSCAASGGTFDVNAMGWYRQAPGKERELVAAITWSGGNTYYADSVKGRFTISRDNAKNTVYLQMTSLKPEDTAVYYCATDFSPVYYTRYDYWGQGTQVTVSS | low polyreactivity
3 | QVQLVESGGGLVQAGGSLRLSCAASGFTFRYYAMGWYRQAPGKERELVAAISKSGGSTYYADSVKGRFTISRDNAKNTVYLQMNSLKPEDTGVFYCAADYAHIGYDYDYWGQGTQVTVSS | high polyreactivity
4 | QVQLVESGGGLVQAGGSLRLSCAASGLIFGFYTMGWYRQAPGKERELVAVISSSGGSTYYADSVKGRFTISRDNAKNTVYLQMNSLKPEDTAVYYCAARAYPVRYRRRDYWGQGTQVTVSS | high polyreactivity
5 | QVQLVESGGGLVQAGGSLRLSCAASGYIFKRYAMGWYRQAPGKERELVAAISGNGGSTYYADSVKGRFTISRDNAKNTVYLQMNSLKPEDTAVYYCNKSGYYSPTSKGEYWGQGTQVTVSS | low polyreactivity
6 | QVQLVESVGGLVQAGGILRLSSAASGSTFDINEKGWYRQAPGKERELVAAITWSGDSTYYADSVKGRFTISRDNAKNTVYLQMNSLKPVDTAVYYCSAYYPYSYYEDASYYYWGQGTQVTLSS | low polyreactivity
7 | QVQLVESGAGLVQAGGSLRLSCAASGSIFVYYTMGCYRQAPGKEREFVAAISFSGGSTYADSVKGRFTISRDNAKNTVYLQMNSLKPEDTAVYYCNADRWLYTPSKFVEMDFWGQGTQVTVSS | low polyreactivity
8 | QVQLVETGGGLVQAGGSLRLSCAASGRTFTKYAMGWYRQAPGKERELVAAISGNGGSTHYADSVKGRFTISRDNAKNTVYLQMNSLKPEDTAVYYCAADHRHKSNSWGQGTQVTVSS | low polyreactivity
9 | QVQLVESGGGLVQAGGSLRLSCAASGRIFFNYAMGWYRQAPGKERELVAAIRGGGSTYADSVKGRFTISRDNAKNTVYLQMNSLKPEDTAVYYCAARYSGSPYHTRRYYYWGQGTQVTVSS | high polyreactivity
10 | QVQLVESGGGLVQAGGSLRLSCAASGLTFGRYAMGWYRQAPGKERELVAAITWIGDGTYYGDSVKGRFTISRDNAKKTVYLQMNSLTPEDTAVYYCAAVYYTYLYGRYNYWGQGTQVTVSS | low polyreactivity
11 | QVQLVESGGGLVQAGGSLRLSCGASGRTFRRNAMGRYRQAPGKERELVAAIRWSSGSTYYADSVKGRFTISRDNAKNTVYLQMNSLKPEDTAVYYCAKRQWGGRESFDYWGQGTQVTVSS | low polyreactivity
12 | QVQLVESGGGLVQAGGSLRLSCAASGFIFSSYAMGWYRQAPGKERELVAAISKSGDRTSYADSVKGRFTISRDNAKNTVYLQMNSLKPEDTAVYYCAKDRLYRTKKYRDMYYWGQGTQVTVSS | high polyreactivity
13 | QVQLVESGGGLVQAGGSLRLSCAASGGIFVQNAMGWYRQAPGKERELVAAITNGGSTYYADSVKGRFTISRDNAKNTVYLQMNSLKPEDTAVYYCAVDEYFIQDMDYWGQGTQVTVSS | low polyreactivity
14 | QVQLVESGGGLVQAGGSLRLSCAASGIIFYPYAMGVYRKAPGKEREMVADITSGGGTNYADSVKGRFTISRDYAKNTVYLKMNSLKPEDTAVYYCAAEVRGYHWGTYYEFYYWGQGTQVTVSS | low polyreactivity
15 | QVQLVESGGGLVQAGGSLRLICAASGNIFHRYAMGWYRQAPGKERELVAAINGGGGSTYYADSVKGRFTISRDNAKNTVYLQMNSLKPEDTAVYSCAAVVQNGVHIYDYWGQGTQVTVSS | high polyreactivity
16 | QVQLVESGGGLVQAGGSLRLSCAASGFTFGDYAMGWYRQAPGKERELVAAISWSGGRTSYADSVKGRFTISRDNAKNTVYLQMNSLKPEDTAVYYCAARYRYAYTSFPFYYWGQGTQVTVSS | high polyreactivity
17 | QVQLVESGGGLVQAGGSLRLSCAASGSIFVPYAMGWYRQAPGKERELVATITISGGSTYYADSVKGRFTISRDNAKNTVYLQMNSLKPEDTAVYYCAAETTASYYKRTDDYDYWGQGTQVTVSS | low polyreactivity
18 | QFQLVESGGGLVQAGGSLRLSCAASGRILSGNAMGWYRQAPGKERELVAAITNAGITKYADSVKGRFTISRDNAKNTVYLQMNSLKPEDTAVYYCATDRYAYNLYDYWGQGTQVTVSS | low polyreactivity
19 | QVQLVESGGGLVQAGGSLRLSCAASGSILRYYTMGWYRQAPGKERELVASIRATGGNTYYADSVKGRFTISRDNAKNTVYLQMNSLKPEDTAVYYCAARYRKKYYWGQGTQVTVSS | high polyreactivity
20 | QVQLVESGGGLVQAGGSLRLSCAASGSVFGKYAMGWYRQAPGKERELVAAISRSGGSTYYADSVKGRFTISRDNAKNTVYLQMNSLKPEDTAVYYCAADSPGPWRYDYWGQGTQVTVSS | high polyreactivity
21 | QVQLVESGGGLVQAGGSLRLSCAASGFTFARNTMGWYRQAPGKEREFVAVITNRGGSTYYADSVKGRFTISRDNAKNTVYLQMNSLKPEDTAVYYCAARKKHSGYGRGNYWGQGTQVTVSS | high polyreactivity

Row | Sequence | polyreactivity (PSR sort gate)
22 | QVQLVESGGGLVQAGGSLRLSCAASGITFVPNAMGWYRQAPGKERELVARIDNGVSTNYADSVKGRFTISRDNAKNTVYLQMNSLKPEDTAVYYCAKDGYWGDWDQYYWGQGTQVTVSS | low polyreactivity
23 | QVQLVESGVGLVQAGGSLRLSCAASGRTFSYYAMGWSRQAPGKERELVAAITSSGGSTYYADSVKGRFTISRDNAKNTVYLQMNSLKPEDTAVYYCAAEIWYYLWTTFERKYDYWGQGTQVTVSS | low polyreactivity
24 | QVQLVESGRGLVQAGGSLRLTCAASGRIFYLNAMGGYRQAPGKERELVAGITNSTTGTYYADSVKGRFTIARDNAKNTVYLQMNSLKPVDTAVYYCNTDVAYEEPVETYDYWGQGTQVTVSS | low polyreactivity
25 | QVQLVESGGGLVQAGGSLRLSCAASGRNFSFNTMVWYIQAPRKERELVAAITSSSARTYYADSVKGRFTISRDNAKNTVYLQMNSLKPEDTAVDYCDTRDWVGSVRMGYWGQGTQVTVSS | high polyreactivity
26 | KVQLVESGGGLVQAGGSLRLSCAASGFTFYIYAMGWYRPAPGKEREVVAAISARGGSTYYADSVKGRFTISRDNAKTTGYLQMNSLKPEDTAVDYCNALYIYAEIYGRGFWGQGTQVTVSS | high polyreactivity
27 | QVQLVESGGGLVQAGGSLRLSCAASGSTSYYYAMGWYRQAPGKERELVAAITTSGGSTYYADSVKGRFTISRDNAKNTVYLQMNSLKPEDTAVYYCATGYLYFTSYRYNYWGQGTQVTVSS | low polyreactivity
28 | QFQLVESGGGLVQAGGSLRLSCAASGSIFDGNAMGWYRQAPGKERELVAAISRRGGSTYYADSVKGRFTISRYNAKNTVYLQMNSLKPEDTAVYYCNAYLSYFDGNYWGQGTQVTVSS | high polyreactivity
29 | QVQLVESGGGLVQAGGSLRLSCAASGITFYGNDMGWYRQAPGKERELVAAISANDGNTYYADSVKGRFTISRDNAKNTVYLQMNSLKPEDTAVYYCAAERYEDYTEYDYWGQGTQVTVSS | low polyreactivity
30 | QVQLVESGGGLVQAGGSLRLSCAASGRTSFNYTMGWYRQAPGKERELVAAITSGGDTYYADSVKGRFTISRDNAKNTVYLQMNSLKPEDTAVYYCNADPDFPSKFDDPYSYDYWGQGTQVNVSS | low polyreactivity
31 | QVQLVESGGGLVQAGGSLRLSCAASGRIFVTNDMGWYRQAPGKERELVAAISLSSGSTYYADSVKGRFTISRDNAKNTVYLQMNSLKPEDTAVYYCAADIFPFGYFLFRHGYWGQGTQVTVSS | low polyreactivity
32 | QVQLVESGGGIVQAGGSLRLSCAASGSIFRRNAMGWYRQSPGKEMEMVASISRGGSTYYADSVKGRFTISRDNAKNTVYLQMNSLKPEDTSVYYCNVVPRWLSWVPTTRRIGDDDYWGQGTQVTVSS | high polyreactivity
33 | QVQLVESGGGLVQAGGSLRLSCAASGSIFLSYDMGWYRQAPGNESELVAAITQSGGSTYYADSVKGRFTISRDNAKNTVYLQMNSLKPEDTAVYYCAADYGYFPQETYPTYGYYYWGQGTQVTVSS | low polyreactivity
34 | QFQLVESGGGLVQAGGSLRLSCAASGLIFVYNDMGWYRQAPGKETELVAGITGTGGNTYYADSVKGRFTISRDNEKNTVYLQMNSLKPEDTAVYYCAASHTSYYLRYGYWGQGTQVTVSS | high polyreactivity
35 | QVQLVESGGGLVQAGGSLRLSCAASGFTFYYYAMGWYRQAPGKERELVAAITWSGDSTNYADSVKGRFTISRDNAKNSVYLQMNSLKPEDTAVYYCATESYDSYGLYDYWGQGTQVTVSS | low polyreactivity
36 | QVHLVESGGGLVQAGGSLRLSCAAYGRIFTLNAMGWDRQAPGKERGWVARISRTGGSTYYADSVKGRFTISRDNAKNTVYLQMNSLKPEDTAVYYCAAAGFSRQPGAGAYYYWGQCTQVTVSS | high polyreactivity
37 | QVQLVESGGGLVQAGGSLRLSCAASGRMFGPYTMGWYRQAPGKEREFVAAITRRGGSTYYADSVKGRFTFSRDNAKNTVYLQMNSLKPEDTAVYYCAAVGQNRSLGYSWGQGTQVTVSS | low polyreactivity
38 | QVQLVESAGGLVQAGGSLRLSCAASGSTFQWYAMGWSRQAPGKERELVAAIDSDGGTNYADSVKGRFTISRDNAKNTVYLQMNSLKPEDTAVYYCAVKPFYYGSEFDYWGQGTQVTVSS | low polyreactivity
39 | QVQLVESGGGLVPAGGTLRLSCAASGFNFYFNTMGWYRQATGKERELVAAISSGGSTYYADSVKGRFTISRDNAKNTVSFQMNSLKPEDTAVYYCNKDYLQYYPYDYWGHGTQVTVSS | low polyreactivity
40 | QVQLVESGGGLVQAGGSLRLSCAASGITFVNYAMGWYIQAPGKERELVAAISQSGAITFYADSVKGRFTISRDYAKNNVYLQMNSLKPEDTEVYYCAARRRRGDRSAYDYWGQGTQVTVSS | high polyreactivity
41 | QVQLVESGGGLVQAGGSLRLSCAASGRIFQWNAMGWYRQAPGKERELVATISSRGGSTYYADSVKGRFTISRDNANNTVYLQMNSLKPEDTAVYYCAARYYAKYRSYDYWGLGTQVTVSS | high polyreactivity
